Target: the molecule itself
Assay: SAXS with online ion-exchange chromatography (IEC-SAXS)

B1: D5_(323–785), the D5N and helicase domains of the Vaccinia virus helicase–primase D5 (domain or fragment)
chain: GNKLFNIAQRILDTNSVLLTERGDYIVWINNSWKFNSEEPLITKLILSIRHQLPKEYSSELLCPRKRKTVEANIRDMLVDSVETDTYPDKLPFKNGVLDLVDGMFYSGDDAKKYTCTVSTGFKFDDTKFVEDSPEMEELMNIINDIQPLTDENKKNRELYEKTLSSCLCGATKGCLTFFFGETATGKSTTKRLLKSAIGDLFVETGQTILTDVLDKGPNPFIANMHLKRSVFCSELPDFACSGSKKIRSDNIKKLTEPCVIGRPCFSNKINNRNHATIIIDTNYKPVFDRIDNALMRRIAVVRFRTHFSQPSGREAAENNDAYDKVKLLDEGLDGKIQNNRYRFAFLYLLVKWYKKYHVPIMKLYPTPEEIPDFAFYLKIGTLLVSSSVKHIPLMTDLSKKGYILYDNVVTLPLTTFQQKISKYFNSRLFGHDIESFINRHKKFANVSDEYLQYIFIEDISSP
notes: also called D5R fragment
stoichiometry N: 6

Source: publication PMC5053136 (Acta Crystallographica. Section D, Structural Biology, 2016)
